Experimental data published in patent US20180072805A1.

Biological target: recombinant human soluble Flt-1 (human) (UniProt P17948)
Assay: competition ELISA, inhibition of human sFlt-1:VEGF binding

Sequence of UniProt P17948 (P17948 other isoform, or with tags, fused parts or gaps limits assumed): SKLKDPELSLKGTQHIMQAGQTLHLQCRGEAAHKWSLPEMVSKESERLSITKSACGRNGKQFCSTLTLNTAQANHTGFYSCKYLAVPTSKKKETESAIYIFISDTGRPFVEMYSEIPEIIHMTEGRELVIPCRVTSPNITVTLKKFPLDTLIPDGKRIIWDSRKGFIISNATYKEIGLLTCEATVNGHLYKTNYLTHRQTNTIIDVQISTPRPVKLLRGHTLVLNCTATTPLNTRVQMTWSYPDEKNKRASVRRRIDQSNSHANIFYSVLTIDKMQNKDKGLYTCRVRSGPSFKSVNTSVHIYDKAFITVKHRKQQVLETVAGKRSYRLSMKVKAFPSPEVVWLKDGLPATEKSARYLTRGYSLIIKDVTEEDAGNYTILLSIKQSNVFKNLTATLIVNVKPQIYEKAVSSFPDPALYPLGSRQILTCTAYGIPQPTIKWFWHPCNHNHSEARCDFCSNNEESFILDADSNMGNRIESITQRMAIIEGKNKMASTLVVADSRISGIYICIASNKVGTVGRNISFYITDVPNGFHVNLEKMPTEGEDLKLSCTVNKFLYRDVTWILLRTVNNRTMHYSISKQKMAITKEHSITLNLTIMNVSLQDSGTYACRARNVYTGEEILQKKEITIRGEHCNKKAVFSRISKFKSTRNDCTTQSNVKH

IC50 (read off the curve): 10 ng/mL
Substance: Abcam56300 (antibody)
